From patent publication US20130045191A1 (IMMATICS BIOTECHNOLOGIES, published 2013) come the findings set out here.

This test has as its target T1, HLA A*024 (human).
T1 construct: also called HLA A*024 alleles; HLA-A*24
In words: HLA immunoprecipitation from tumour tissue, LC-MS (Example 1).

In the case of LYQILQGIVF [CDC2-001], the binding result was “binds”.
